Test results as given in publication PMC7326492 (eLife, 2020).

B4: human ACVR2B.Fc fusion protein (Fc fusion)
chain: SGRGEAETRECIYYNANWELERTNQSGLERCEGEQDKRLHCYASWRNSSGTIELVKKGCWLDDFNCYDRQECVATEENPQVYFCCCEGNFCNERFTHLPEAGGPEVTYEPPPTAPTLLT

What was measured:
ACVR1 [1] = biological target: ACVR1 (UniProt Q04771)
[2] = biological target: B4; experiment: SPR
[3] = biological target: T1, monomeric extracellular domain of ACVR2B (UniProt Q13705 19-137); experiment: SPR; complexes of ligand•type II receptor extracellular domain formed at 1:2.5 ratio and injected over captured ACVR1B-Fc and ACVR1-Fc; conditions: both partners purified
T1 construct: ACVR2B, extracellular domain, monomeric
T1 sequence (looked up): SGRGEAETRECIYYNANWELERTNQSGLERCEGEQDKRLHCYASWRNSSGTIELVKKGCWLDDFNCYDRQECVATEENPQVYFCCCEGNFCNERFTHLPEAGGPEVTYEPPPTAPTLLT

[4] = biological target: B4; experiment: SPR
[5] = biological target: T2, human ACVR2B.Fc fusion protein (human, UniProt Q13705 19-137); experiment: SPR; Biacore 3000, CM5 chip; human ACVR2B.Fc captured on covalently immobilised Protein A; ligand 100nM-0.14 nM flowed at 100 uL/minute; 25°C; HBS-EP (10 mM Hepes, 150 mM NaCl, 3.4 mM EDTA, 0.05% polysorbate 20, pH 7.4); 1:1 binding model with mass transport limitation; conditions: both partners purified
T2 construct: Probably the extracellular domain (surmise); Captured on Protein A in one SPR experiment, coupled to the chip in another
T2 sequence (looked up): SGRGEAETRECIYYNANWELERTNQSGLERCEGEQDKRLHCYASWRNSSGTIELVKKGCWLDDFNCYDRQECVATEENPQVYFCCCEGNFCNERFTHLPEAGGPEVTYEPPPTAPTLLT

ACVR1 [6] = biological target: T3, ACVR1 (UniProt Q04771 21-123); experiment: cell-based or functional assay
T3 sequence (looked up): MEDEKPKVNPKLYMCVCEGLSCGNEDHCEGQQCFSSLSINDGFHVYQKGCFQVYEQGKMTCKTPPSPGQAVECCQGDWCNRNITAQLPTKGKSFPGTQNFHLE

Activin A.∆D406 [7] = biological target: T4, Activin A.∆D406 (human, UniProt P08476 311-426, ∆D406); experiment: SPR
T4 sequence: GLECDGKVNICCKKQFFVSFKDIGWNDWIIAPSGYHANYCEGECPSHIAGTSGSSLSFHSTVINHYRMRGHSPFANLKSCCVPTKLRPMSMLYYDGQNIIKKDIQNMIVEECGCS

Activin A.∆D406 [8] = biological target: T4, Activin A.∆D406; experiment: SPR; remark: listed apart in the source

Activin A (from UniProt P08476 311-426) (ligand)
IC50 of inhibition of BMP7 (12 nM)-induced Smad1/5/8 luciferase reporter signal in HEK293 cells (ACVR1 [1]): 1400 pM

B1: Activin A (ligand, human, UniProt P08476 311-426, looked up)
chain: GLECDGKVNICCKKQFFVSFKDIGWNDWIIAPSGYHANYCEGECPSHIAGTSGSSLSFHSTVINHYRMRGHSPFANLKSCCVPTKLRPMSMLYYDDGQNIIKKDIQNMIVEECGCS
notes: Activin A (inhibin beta A chain), human, mature region cloned downstream of the mouse Inhba pro-peptide; the mature dimer was isolated; rhActivin A from R and D Systems is named only for the in vivo implants; also called wild-type Activin A; Activin A WT; source: CHO-K1 cells expressing human Furin, stably expressed, purified (heparin, size exclusion, C4 reverse phase)
koff [2]: 8.46e-05 s⁻¹ | binding result [3]: binds | Kd [4]: 4.49 pM | binding result [5]: binds

B2: Activin A.Nod.F2TL (ligand)
chain: GLECDGKVNICCKKQFFVSFKDIGWNDWIIAPSGYHANYCEGECPSHIAGTSGSSLSFHSTVINHYRMRGHSPFANLKSCCVPTKLRPMSMLYYDNGRIIKKDIQNMIVEECGCS
koff [2]: 0.00027 s⁻¹ | Kd [4]: 5.11 pM

B3: Activin A.∆D406 (ligand, human, UniProt P08476 311-426, looked up)
chain: GLECDGKVNICCKKQFFVSFKDIGWNDWIIAPSGYHANYCEGECPSHIAGTSGSSLSFHSTVINHYRMRGHSPFANLKSCCVPTKLRPMSMLYYDGQNIIKKDIQNMIVEECGCS
notes: also called ActA.ΔD406; source: CHO-K1 cells expressing human Furin, stably expressed, purified (heparin, size exclusion, C4 reverse phase)
binding result [5]: binds | IC50 of inhibition of BMP7 (12 nM)-induced Smad1/5/8 luciferase reporter signal in HEK293 cells (ACVR1 [6]): 20000 pM

B4
koff (Activin A.∆D406 [7]): 0.000254 s⁻¹ | Kd (Activin A.∆D406 [8]): 4.62 pM
